{
  "source": "patent US20150266922",
  "proteins": {"B1": {"name": "Dipeptidyl peptidase 9 (DPP9), recombinant wild-type (protein)", "chain": "MRKVKKLRLDKENTGSWRSFSLNSEGAERMATTGTPTADRGDAAATDDPAARFQVQKHSWDGLRSIIHGSRKYSGLIVNKAPHDFQFVQKTDESGPHSHRLYYLGMPYGSRENSLLYSEIPKKVRKEALLLLSWKQMLDHFQATPHHGVYSREEELLRERKRLGVFGITSYDFHSESGLFLFQASNSLFHCRDGGKNGFMVSPMKPLEIKTQCSGPRMDPKICPADPAFFSFINNSDLWVANIETGEERRLTFCHQGLSNVLDDPKSAGVATFVIQEEFDRFTGYWWCPTASWEGSEGLKTLRILYEEVDESEVEVIHVPSPALEERKTDSYRYPRTGSKNPKIALKLAEFQTDSQGKIVSTQEKELVQPFSSLFPKVEYIARAGWTRDGKYAWAMFLDRPQQWLQLVLLPPALFIPSTENEEQRLASARAVPRNVQPYVVYEEVTNVWINVHDIFYPFPQSEGEDELCFLRANECKTGFCHLYKVTAVLKSQGYDWSEPFSPGEDEFKCPIKEEIALTSGEWEVLARHGSKIWVNEETKLVYFQGTKDTPLEHHLYVVSYEAAGEIVRLTTPGFSHSCSMSQNFDMFVSHYSSVSTPPCVHVYKLSGPDDDPLHKQPRFWASMMEAASCPPDYVPPEIFHFHTRSDVRLYGMIYKPHALQPGKKHPTVLFVYGGPQVQLVNNSFKGIKYLRLNTLASLGYAVVVIDGRGSCQRGLRFEGALKNQMGQVEIEDQVEGLQFVAEKYGFIDLSRVAIHGWSYGGFLSLMGLIHKPQVFKVAIAGAPVTVWMAYDTGYTERYMDVPENNQHGYEAGSVALHVEKLPNEPNRLLILHGFLDENVHFFHTNFLVSQLIRAGKPYQLQIYPNERHSIRCPESGEHYEVTLLHFLQEYL"}, "B2": {"name": "Dipeptidyl peptidase IV (DPPIV) (protein)", "chain": "SRKTYTLTDYLKNTYRLKLYSLRWISDHEYLYKQENNILVFNAEYGNSSVFLENSTFDEFGHSINDYSISPDGQFILLEYNYVKQWRHSYTASYDIYDLNKRQLITEERIPNNTQWVTWSPVGHKLAYVWNNDIYVKIEPNLPSYRITWTGKEDIIYNGITDWVYEEEVFSAYSALWWSPNGTFLAYAQFNDTEVPLIEYSFYSDESLQYPKTVRVPYPKAGAVNPTVKFFVVNTDSLSSVTNATSIQITAPASMLIGDHYLCDVTWATQERISLQWLRRIQNYSVMDICDYDESSGRWNCLVARQHIEMSTTGWVGRFRPSEPHFTLDGNSFYKIISNEEGYRHICYFQIDKKDCTFITKGTWEVIGIEALTSDYLYYISNEYKGMPGGRNLYKIQLSDYTKVTCLSCELNPERCQYYSVSFSKEAKYYQLRCSGPGLPLYTLHSSVNDKGLRVLEDNSALDKMLQNVQMPSKKLDFIILNETKFWYQMILPPHFDKSKKYPLLLDVYAGPCSQKADTVFRLNWATYLASTENIIVASFDGRGSGYQGDKIMHAINRRLGTFEVEDQIEAARQFSKMGFVDNKRIAIWGWSYGGYVTSMVLGSGSGVFKCGIAVAPVSRWEYYDSVYTERYMGLPTPEDNLDHYRNSTVMSRAENFKQVEYLLIHGTADDNVHFQQSAQISKALVDVGVDFQAMWYTDEDHGIASSTAHQHIYTHMSHFIKQCFSLP"}, "B3": {"name": "Dipeptidyl peptidase 8 (DPP8), recombinant (protein)", "chain": "MWKRSEQMKIKSGKCNMAAAMETEQLGVEIFETADCEENIESQDRPKLEPFYVERYSWSQLKKLLADTRKYHGYMMAKAPHDFMFVKRNDPDGPHSDRIYYLAMSGENRENTLFYSEIPKTINRAAVLMLSWKPLLDLFQATLDYGMYSREEELLRERKRIGTVGIASYDYHQGSGTFLFQAGSGIYHVKDGGPQGFTQQPLRPNLVETSCPNIRMDPKLCPADPDWIAFIHSNDIWISNIVTREERRLTYVHNELANMEEDARSAGVATFVLQEEFDRYSGYWWCPKAETTPSGGKILRILYEENDESEVEIIHVTSPMLETRRADSFRYPKTGTANPKVTFKMSEIMIDAEGRIIDVIDKELIQPFEILFEGVEYIARAGWTPEGKYAWSILLDRSQTRLQIVLISPELFIPVEDDVMERQRLIESVPDSVTPLIIYEETTDIWINIHDIFHVFPQSHEEEIEFIFASECKTGFRHLYKITSILKESKYKRSSGGLPAPSDFKCPIKEEIAITSGEWEVLGRHGSNIQVDEVRRLVYFEGTKDSPLEHHLYVVSYVNPGEVTRLTDRGYSHSCCISQHCDFFISKYSNQKNPHCVSLYKLSSPEDDPTCKTKEFWATILDSAGPLPDYTPPEIFSFESTTGFTLYGMLYKPHDLQPGKKYPTVLFIYGGPQVQLVNNRFKGVKYFRLNTLASLGYVVVVIDNRGSCHRGLKFEGAFKYKMGQIEIDDQVEGLQYLASRYDFIDLDRVGIHGWSYGGYLSLMALMQRSDIFRVAIAGAPVTLWIFYDTGYTERYMGHPDQNEQGYYLGSVAMQAEKFPSEPNRLLLLHGFLDENVHFAHTSILLSFLVRAGKPYDLQIYPQERHSIRVPESGEHYELHLLHYLQENLGSRIAALKVI"}},
  "key": {"[1]": {"biological_target": "SUMO1, P63165"}, "[2]": {"biological_target": "RanGAP modified with SUMO1, P63165"}, "[3]": {"biological_target": "SUMO2, P61956", "sequence (P61956 1-93)": "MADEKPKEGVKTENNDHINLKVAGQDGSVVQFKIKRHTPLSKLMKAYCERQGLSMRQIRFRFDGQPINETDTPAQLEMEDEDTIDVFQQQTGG"}, "[4]": {"biological_target": "SUMO2D71H, P61956", "sequence (P61956 other isoform, or with tags, fused parts or gaps)": "as the sequence (P61956 1-93) above, with D71H counted along it"}, "[5]": {"biological_target": "T1, SUMO1 EIL peptide SLRFLFEGQRIADNH (SEQ ID NO: 1)", "T1 chain": "SLRFLFEGQRIADNH"}, "[6]": {"biological_target": "SUMO2R61L, P61956", "sequence (P61956 1-93 R61L)": "as the sequence (P61956 1-93) above, with R61L counted along it"}, "[7]": {"biological_target": "SUMO1E67A, P63165"}, "[8]": {"biological_target": "RanGAP"}, "[9]": {"biological_target": "T2, SLRFLYEG (SEQ ID NO: 38)", "T2 chain": "SLRFLYEG"}},
  "data": [
    {"protein": "B1", "values": [
      {"measurement": "hydrolysis rate of GP-AMC by DPP9", "setting": "[1]", "value": "the hydrolysis rate of GP-AMC by DPP9 was increased in the presence of SUMO1 in comparison to control reactions"},
      {"measurement": "hydrolysis of GP-AMC by DPP9", "setting": "[2]", "value": "DPP9 activity is increased when incubated with RanGAP modified by SUMO1, but not by unmodified RanGAP"},
      {"measurement": "hydrolysis of GP-AMC by DPP9", "setting": "[3]", "value": "SUMO1 but not SUMO2 can regulate DPP9 activity"},
      {"measurement": "hydrolysis of GP-AMC by DPP9", "setting": "[4]", "value": "DPP9 activity was increased in the presence of SUMO2 mutated in a single amino acid: D71H"},
      {"measurement": "hydrolysis of GP-AMC by recombinant DPP9", "setting": "[5]", "value": "pure recombinant DPP8 and DPP9 are inhibited by the EIL peptide, also in the absence of SUMO1"},
      {"measurement": "hydrolysis of GP-AMC by DPP9", "setting": "[6]", "value": "This activation was not observed in the presence of SUMO2R61L"},
      {"measurement": "hydrolysis of GP-AMC by DPP9", "setting": "[7]", "value": "this activation was not observed in the presence of SUMO1 mutated in a single amino acid: SUMO1E67A"},
      {"measurement": "hydrolysis of GP-AMC by DPP9", "setting": "[8]", "value": "DPP9 activity is increased when incubated with RanGAP modified by SUMO1, but not by unmodified RanGAP"}
    ]},
    {"protein": "B2", "values": [
      {"measurement": "hydrolysis of GP-AMC by DPPIV", "setting": "[9]", "value": "It has no inhibitory effect towards DPPIV, in the concentrations measured (up to 50 µM)"},
      {"measurement": "hydrolysis of GP-AMC by DPPIV", "setting": "[5]", "value": "DPPIV is not inhibited by the EIL peptide, also in the presence of 13 µM peptide"}
    ]},
    {"protein": "B3", "values": [
      {"measurement": "hydrolysis of GP-AMC by recombinant DPP8", "setting": "[5]", "value": "pure recombinant DPP8 and DPP9 are inhibited by the EIL peptide, also in the absence of SUMO1"}
    ]}
  ]
}
